The test system of data set [1] is 3′-amino terminal DNA primer / DNA template duplex. Briefly: 3′-amino primer extension assay (single nucleotide addition, pre-steady-state NP activity). It is filed as biochemical. As for the experimental part:
(§1) Primer extension assays. Except where indicated, all extension reactions were performed with 1 μM fluorescein-labeled primer, 1.5 μM template, and ˜1.1 μM purified His6-tagged protein at 55° C. in a reaction buffer composed of 40 mM Tris-HCl, pH 8.8, 1 mM DTT, and a divalent cation as specified, typically 10 mM CaCl2. Reaction mixtures were equilibrated at the indicated reaction temperature for 1 min and initiated by addition of substrate. Progress was monitored by sampling 1 μL from the reaction manually quenched into 24 μL of chilled 90% formamide, 10 mM EDTA. Quenched samples were denatured at 90° C. for 1 min and cooled to room temperature prior to separation by denaturing polyacrylamide gel electrophoresis on 20% TBE-urea gels. To maintain strand separation for long extension products, as in FIGS. 3F-31I, an unlabeled DNA oligonucleotide complementary to the template was added to the quenching buffer (˜2 μM) prior to denaturation. Typically, 3 or 4 μL of quenched sample was loaded per lane for gels of 0.75-mm thickness. Bands were visualized with a Typhoon laser scanning imager (GE Amersham) and quantified with the manufacturer's software. For acid digestion of extended products, a reaction sample was diluted with 2.5 volumes of 1% acetic acid, 10 mM EDTA in formamide and digested at 75° C. for 45 min prior to gel separation.

For data set [2], the system named is 3′-amino terminal DNA primer / mixed sequence template duplex. In words: Multiple-turnover NP-DNA synthesis by 3′-amino primer extension with all four nNTPs on a mixed sequence template. The class given is biochemical. The settings on record: 55° C., Ca2+. The procedure:
as §1

Like-named read-outs stand apart in the source and are kept apart here.

B1: F710Y: B. stearothermophilus DNA polymerase I large fragment (BF) with single active site mutation F710Y in the O helix (protein, listed as Bacillus stearothermophilus)
chain: MKNKLVLIDGNSVAYRAFFALPLLHNDKGIHTNAVYGFTMMLNKILAEEQPTHILVAFDAGKTTFRHETFQDYKGGRQQTPPELSEQFPLLRELLKAYRIPAYELDHYEADDIIGTMAARAEREGFAVKVISGDRDLTQLASPQVTVEITKKGITDIESYTPETVVEKYGLTPEQIVDLKGLMGDKSDNIPGVPGIGEKTAVKLLKQFGTVENVLASIDEIKGEKLKENLRQYRDLALLSKQLAAICRDAPVELTLDDIVYKGEDREKVVALFQELGFQSFLDKMAVQTDEGEKPLAGMDFAIADSVTDEMLADKAALVVEVVGDNYHHAPIVGIALANERGRFFLRPETALADPKFLAWLGDETKKKTMFDSKRAAVALKWKGIELRGVVFDLLLAAYLLDPAQAAGDVAAVAKMHQYEAVRSDEAVYGKGAKRTVPDEPTLAEHLVRKAAAIWALEEPLMDELRRNEQDRLLTELEQPLAGILANMEFTGVKVDTKRLEQMGAELTEQLQAVERRIYELAGQEFNINSPKQLGTVLFDKLQLPVLKKTKTGYSTSADVLEKLAPHHEIVEHILHYRQLGKLQSTYIEGLLKVVHPVTGKVHTMFNQALTQTGRLSSVEPNLQNIPIRLEEGRKIRQAFVPSEPDWLIFAADYSQIELRVLAHIAEDDNLIEAFRRGLDIHTKTAMDIFHVSEEDVTANMRRQAKAVNYGIVYGISDYGLAQNLNITRKEAAEFIERYFASFPGVKQYMDNIVQEAKQKGYVTTLLHRRRYLPDITSRNFNVRSFAERTAMNTPIQGSAADIIKKAMIDLSVRLREERLQARLLLQVHDELILEAPKEEIERLCRLVPEVMEQAVTLRVPLKVDYHYGPTWYDAK
Take B1: the “Selectivity dCTP/nCTP, ratio (kpol/Kd, app)dCTP/(kpol/Kd, app)nCTP” value in data set [1] (10 mM CaCl2, pre-steady-state) worked out at 9. For the same molecule, the Kd in data set [1] (3′-amino primer extension, 10 mM CaCl2, pre-steady-state, read-out: Kd, app dCTP) stood at 1100 nM. Moreover, the Kd in data set [1] (3′-amino primer extension, 10 mM CaCl2, pre-steady-state, read-out: Kd, app nCTP) is 3600 nM. In data set [1] (3′-amino primer extension, varying dCTP, 10 mM CaCl2, pre-steady-state, 55° C., pH 8.8), the “kpol dCTP” value is 0.191 min⁻¹. Moreover, the “kpol nCTP” value in data set [1] (3′-amino primer extension, varying nCTP, 10 mM CaCl2, pre-steady-state, 55° C., pH 8.8) is 0.069 min⁻¹. In addition, in data set [1] (Ca2+ cofactor), the “increase in kpol for dCTP vs. wild-type” value was 2.6 fold and the “increase in kpol for nCTP (NP activity) vs. wild-type” value came to 21 fold. In addition, the “transient kpol/Kd for NP-DNA synthesis with Ca2+” value in data set [1] (nCTP, Ca2+, from Table 4) stood at 320 M⁻¹ s⁻¹. Besides, the “maximum reaction velocity / NP activity, Ca2+ vs. Mg2+” value in data set [1] (saturating Ca2+ vs. Mg2+, faster with Ca2+) was determined as 5 fold. Further, the “apparent binding affinity for nCTP vs. dCTP, effect of the mutation” value in data set [1] (with Ca2+) is given as “unaffected”. In addition, the “kinetic disadvantage of NP-DNA polymerase activity relative to native phosphodiester bond forming activity” value in data set [1] (with F710Y) is “approximately four orders-of-magnitude”. Moreover, the “time to full length +28 nt NP-DNA product” value in data set [2] was below 24 h.

The record behind these values is patent US12428658B2, “Methods and compositions for enzymatic polymerization of N3′→P5′ phosphoramidate DNA” (The General Hospital Corporation, priority 2019, dated 2025).
